Reference: patent US8021833

Target: TSG101 (UniProt Q99816)
Experiment: cell-based or functional assay

UniProt Q99816, sequence (Q99816 2-390 limits assumed): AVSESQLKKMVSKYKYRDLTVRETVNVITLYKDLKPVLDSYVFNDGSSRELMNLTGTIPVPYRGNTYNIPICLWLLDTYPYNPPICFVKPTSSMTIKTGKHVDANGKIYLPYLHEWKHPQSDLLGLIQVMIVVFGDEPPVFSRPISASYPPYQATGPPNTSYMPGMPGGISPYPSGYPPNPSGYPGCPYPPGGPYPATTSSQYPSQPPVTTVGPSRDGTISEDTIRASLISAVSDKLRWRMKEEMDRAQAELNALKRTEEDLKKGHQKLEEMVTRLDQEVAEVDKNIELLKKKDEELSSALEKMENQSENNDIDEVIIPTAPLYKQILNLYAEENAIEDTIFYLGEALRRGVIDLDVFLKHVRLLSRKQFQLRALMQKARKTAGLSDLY

Substance | release of HIV-1 from transfected 293T cells | release of HIV-1 from transfected 293T cells, repeated experiments [% inhibition]
Vps28 mutant with deletion of amino acids 126 to 167, C-terminal Flag tag (from UniProt Q9UK41 1-125; Q9UK41 168-221) | 63 % inhibition | –
Vps28 mutant with deletion of the N-terminal 27 amino acids, C-terminal Flag tag (from UniProt Q9UK41 28-221) | 72 % reduction | –
Vps28ΔC, C-terminal 43-amino acid deletion mutant of Vps28, C-terminal Flag tag (from UniProt Q9UK41 1-178) | 67 % reduction | 53 to 75
